Experimental findings from IntAct's records for PubMed 21670263 are described below.

In one test the target is tf2h1_human GTF2H1 (UniProt P32780).
A further test has as its target cbp_human CREBBP (UniProt Q92793).

Krueppel-like factor 1 (Homo sapiens), Q13351 W73P, sequence (Q13351 whole entry W73P): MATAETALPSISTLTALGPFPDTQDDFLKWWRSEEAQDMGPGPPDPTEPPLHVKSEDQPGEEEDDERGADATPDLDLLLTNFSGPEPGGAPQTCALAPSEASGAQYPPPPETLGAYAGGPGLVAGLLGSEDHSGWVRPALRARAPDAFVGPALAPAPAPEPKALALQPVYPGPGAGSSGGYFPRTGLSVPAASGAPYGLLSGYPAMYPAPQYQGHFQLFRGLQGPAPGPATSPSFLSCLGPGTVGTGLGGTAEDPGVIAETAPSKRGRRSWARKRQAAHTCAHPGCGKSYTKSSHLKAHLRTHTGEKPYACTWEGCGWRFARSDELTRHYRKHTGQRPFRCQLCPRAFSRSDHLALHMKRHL
cbp_human CREBBP, sequence (Q92793 whole entry, looked up): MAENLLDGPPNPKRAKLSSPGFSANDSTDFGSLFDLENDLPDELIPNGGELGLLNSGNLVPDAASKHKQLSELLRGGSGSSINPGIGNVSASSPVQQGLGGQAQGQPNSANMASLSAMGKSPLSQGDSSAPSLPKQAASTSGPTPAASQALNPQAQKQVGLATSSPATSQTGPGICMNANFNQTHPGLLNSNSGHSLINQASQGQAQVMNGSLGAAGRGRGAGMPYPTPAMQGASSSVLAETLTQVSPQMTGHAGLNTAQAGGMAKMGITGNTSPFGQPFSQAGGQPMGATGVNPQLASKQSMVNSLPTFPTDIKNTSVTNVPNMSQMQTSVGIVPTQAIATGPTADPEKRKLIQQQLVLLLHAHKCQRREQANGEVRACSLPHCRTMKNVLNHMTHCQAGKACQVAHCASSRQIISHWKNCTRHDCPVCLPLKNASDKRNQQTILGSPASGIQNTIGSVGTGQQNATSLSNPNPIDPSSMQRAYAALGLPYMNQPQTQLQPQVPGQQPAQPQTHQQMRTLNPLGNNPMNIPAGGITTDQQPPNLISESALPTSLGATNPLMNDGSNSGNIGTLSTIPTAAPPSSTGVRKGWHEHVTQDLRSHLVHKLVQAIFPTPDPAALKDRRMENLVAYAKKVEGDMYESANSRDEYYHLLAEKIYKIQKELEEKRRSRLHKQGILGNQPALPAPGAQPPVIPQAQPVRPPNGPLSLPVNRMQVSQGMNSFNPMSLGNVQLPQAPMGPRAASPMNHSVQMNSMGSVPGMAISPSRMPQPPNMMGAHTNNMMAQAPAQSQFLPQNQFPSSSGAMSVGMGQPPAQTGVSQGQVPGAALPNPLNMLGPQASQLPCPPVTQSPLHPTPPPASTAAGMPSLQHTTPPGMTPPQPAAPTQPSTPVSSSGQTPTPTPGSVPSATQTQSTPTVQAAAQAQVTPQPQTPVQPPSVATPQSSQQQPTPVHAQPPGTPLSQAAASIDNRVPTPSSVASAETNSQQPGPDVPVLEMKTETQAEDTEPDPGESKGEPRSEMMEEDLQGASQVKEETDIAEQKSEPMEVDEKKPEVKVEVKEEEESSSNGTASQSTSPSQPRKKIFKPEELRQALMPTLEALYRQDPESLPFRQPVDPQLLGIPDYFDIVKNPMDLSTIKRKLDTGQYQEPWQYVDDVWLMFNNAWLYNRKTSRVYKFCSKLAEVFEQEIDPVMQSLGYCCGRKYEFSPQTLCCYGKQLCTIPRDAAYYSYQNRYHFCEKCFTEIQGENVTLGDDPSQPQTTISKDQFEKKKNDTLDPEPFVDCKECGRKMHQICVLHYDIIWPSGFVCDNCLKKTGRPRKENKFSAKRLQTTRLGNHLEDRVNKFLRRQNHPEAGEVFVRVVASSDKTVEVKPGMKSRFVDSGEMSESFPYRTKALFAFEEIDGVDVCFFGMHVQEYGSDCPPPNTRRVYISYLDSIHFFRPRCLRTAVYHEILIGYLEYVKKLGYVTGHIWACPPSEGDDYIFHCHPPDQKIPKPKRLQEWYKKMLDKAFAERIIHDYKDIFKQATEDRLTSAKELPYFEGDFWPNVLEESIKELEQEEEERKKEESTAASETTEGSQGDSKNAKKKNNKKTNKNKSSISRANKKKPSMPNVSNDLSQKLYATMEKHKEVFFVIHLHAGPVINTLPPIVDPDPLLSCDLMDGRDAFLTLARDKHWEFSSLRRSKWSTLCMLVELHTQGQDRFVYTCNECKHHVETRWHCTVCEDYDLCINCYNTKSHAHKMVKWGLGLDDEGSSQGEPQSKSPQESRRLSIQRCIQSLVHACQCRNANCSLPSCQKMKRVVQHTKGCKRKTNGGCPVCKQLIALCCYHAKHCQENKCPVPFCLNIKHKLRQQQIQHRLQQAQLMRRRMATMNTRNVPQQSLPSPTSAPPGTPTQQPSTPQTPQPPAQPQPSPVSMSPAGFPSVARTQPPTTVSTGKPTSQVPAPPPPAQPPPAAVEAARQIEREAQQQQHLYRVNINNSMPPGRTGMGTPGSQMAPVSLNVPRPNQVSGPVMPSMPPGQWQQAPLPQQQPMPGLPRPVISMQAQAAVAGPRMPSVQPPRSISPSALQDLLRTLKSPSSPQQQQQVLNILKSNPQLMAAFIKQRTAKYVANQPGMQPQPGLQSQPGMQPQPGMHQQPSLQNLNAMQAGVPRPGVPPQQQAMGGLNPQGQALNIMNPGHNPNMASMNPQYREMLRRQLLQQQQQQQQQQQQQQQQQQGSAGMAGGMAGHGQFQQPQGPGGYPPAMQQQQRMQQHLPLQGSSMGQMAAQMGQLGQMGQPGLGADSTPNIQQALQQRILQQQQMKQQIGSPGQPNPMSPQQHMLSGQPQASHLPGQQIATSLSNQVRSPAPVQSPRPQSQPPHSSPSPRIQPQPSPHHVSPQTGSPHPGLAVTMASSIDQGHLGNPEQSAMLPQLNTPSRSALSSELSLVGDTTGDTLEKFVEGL
tf2h1_human GTF2H1, sequence (P32780 whole entry): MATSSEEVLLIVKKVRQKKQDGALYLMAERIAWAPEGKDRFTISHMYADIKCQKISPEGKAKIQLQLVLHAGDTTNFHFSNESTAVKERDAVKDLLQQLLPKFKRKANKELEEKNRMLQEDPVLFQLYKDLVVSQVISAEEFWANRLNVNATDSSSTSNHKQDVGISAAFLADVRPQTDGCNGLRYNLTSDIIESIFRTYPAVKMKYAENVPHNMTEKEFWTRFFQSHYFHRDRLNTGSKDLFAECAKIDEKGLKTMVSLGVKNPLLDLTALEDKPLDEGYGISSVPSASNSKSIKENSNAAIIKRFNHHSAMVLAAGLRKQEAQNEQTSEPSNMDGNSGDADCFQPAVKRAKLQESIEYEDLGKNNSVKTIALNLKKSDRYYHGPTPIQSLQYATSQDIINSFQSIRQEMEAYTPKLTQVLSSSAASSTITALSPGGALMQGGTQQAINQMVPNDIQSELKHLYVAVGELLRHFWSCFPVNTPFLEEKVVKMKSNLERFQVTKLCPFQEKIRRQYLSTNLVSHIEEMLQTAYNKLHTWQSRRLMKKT

As to “Krueppel-like factor 1 (Homo sapiens), Q13351 W73P”, the “effect of a mutation on the interaction” value in the test with tf2h1_human GTF2H1 and with cbp_human CREBBP was “disrupting interaction strength” throughout.
